Biological target: the molecule itself
Assay: SEC

B1: SusD (residues 26-551) of Bacteroides thetaiotaomicron (domain or fragment, Bacteroides thetaiotaomicron ATCC 29148, UniProt Q8A1G2 26-551, looked up)
chain: INDLDISPIDPQTGGSFDQQGVFVKGYAMLGVTGQKGIDGSPDLDGQDEGESGFYRTTFNCNELPTDECLWAWQENQDIPQLTSISWSPSSQRTEWVYVRLGYDITQYNFFLDQTEGMTDAETLRQRAEIRFLRALHYWYFLDLFGKAPFKEHFSNDLPVEKKGTELYTYIQNELNEIEADMYEPRQAPFGRADKAANWLLRARLYLNAGVYTGQTDYAKAEEYASKVIGSAYKLCTNYSELFMADNDENENAMQEIILPIRQDGVKTRNYGGSTYLVCGTRVAGMPRMGTTNGWSCIFARAAMVQKFFSNLEDVPMLPADVEIPTKGLDTDEQIDAFDAEHGIRTEDMIKAAGDDRALLYSGVGGGRRKIQTDAISGFTDGLSIVKWQNYRSDGKPVSHATYPDTDIPLFRLAEAYLTRAEAIFRQGGDATGDINELRKRANCTRKVQTVTEQELIDEWAREFYLEGRRRSDLVRFGMFTTNKYLWDWKGGAMNGTSVASYYNKYPIPVSDINNNRNMSQNEGYK
stoichiometry N: 2

Source: paper PMC2563962 (Structure (London, England : 1993), 2008)
